According to patent US20080306007:
Numbering of substitutions follows the chain as printed.

T1: endophilin I (native, from rat brain lysate or synaptosomes), O35179
T1 chain: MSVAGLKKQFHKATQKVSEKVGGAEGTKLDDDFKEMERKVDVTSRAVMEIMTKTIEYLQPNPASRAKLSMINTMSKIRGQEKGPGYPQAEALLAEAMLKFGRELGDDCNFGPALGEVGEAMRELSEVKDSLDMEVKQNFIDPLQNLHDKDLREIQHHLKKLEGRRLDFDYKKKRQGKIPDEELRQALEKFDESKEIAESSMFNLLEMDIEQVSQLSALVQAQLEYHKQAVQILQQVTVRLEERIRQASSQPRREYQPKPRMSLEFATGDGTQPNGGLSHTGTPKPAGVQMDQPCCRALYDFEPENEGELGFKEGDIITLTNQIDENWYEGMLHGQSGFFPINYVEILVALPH

B1: DynI-PB2-GFP (protein)
chain: MGNRGMEDLIPLVNRLQDAFSAIGQNADLDLPQIAVVGGQSAGKSSVLENFVGRDFLPRGSGIVTRRPLVLQLVNSTTEYAEFLHCKGKKFTDFEEVRLEIEAETDRVTGTNKGISPVPINLRVYSPHVLNLTLVDLPGMTKVPVGDQPPDIEFQIRDMLMQFVTKENCLILAVSPANSDLANSDALKIAKEVDPQGQRTIGVITKLDLMDEGTDARDVLENKLLPLRRGYIGVVNRSQKDIDGKKDITAALAAERKFFLSHPSYRHLADRMGTPYLQKVLNQQLTNHIRDTLPGLRNKLQSQLLSIEKEVDEYKNFRPDDPARKTKALLQMVQQFAVDFEKRIEGSGDQIDTYELSGGARINRIFHERFPFELVKMEFDEKELRREISYAIKNIHGIRTGLFTPDLAFEATVKKQVQKLKEPSIKCVDMVVSELTSTIRKCSEKLQQYPRLREEMERIVTTHIREREGRTKEQVMLLIDIELAYMNTNHEDFIGFANAQQRSNQMNKKKTSGNQDEILVIRKGWLTINNIGIMKGGSKEYWFVLTAENLSWYKDDEEKEKKYMLSVDNLKLRDVEKGFMSSKHIFALFNTEQRNVYKDYRQLELACETQEEVDSWKASFLRAGVYPERVGDKEKASETEENGSDSFMHSMDPQLERQVETIRNLVDSYMAIVNKTVRDLMPKTIMHLMINNTKEFIFSELLANLYSCGDQNTLMEESAEQAQRRDEMLRMYHALKEALSIIGDINTTTVSTPMPPPVDDSWLQVQSVPAGEESPTSSPTPQRRAPAVPPARPGSRGPAPGPPPAGSALGGAPPVPSRPGASPDPFGPPPQVPSRPNRAPPGVPSRSGQASPSRPESPRPPFDL
B2: DynI^dmE-GFP (protein)
chain: B1 chain with E772R, E773R, S774E, S778E
B3: DynI^dmA-GFP (protein)
chain: B1 chain with E772R, E773R, S774A, S778A
B4: DynI-3B-GFP (protein)
chain: B1 chain with E772R, E773R, P793A

Assays:
[1] = biological target: syndapin I (native, from rat brain lysate or synaptosomes)
[2] = biological target: T1, endophilin I (native, from rat brain …)

Sequence of syndapin I (native, from rat brain lysate or synaptosomes) (chain, as listed by the source): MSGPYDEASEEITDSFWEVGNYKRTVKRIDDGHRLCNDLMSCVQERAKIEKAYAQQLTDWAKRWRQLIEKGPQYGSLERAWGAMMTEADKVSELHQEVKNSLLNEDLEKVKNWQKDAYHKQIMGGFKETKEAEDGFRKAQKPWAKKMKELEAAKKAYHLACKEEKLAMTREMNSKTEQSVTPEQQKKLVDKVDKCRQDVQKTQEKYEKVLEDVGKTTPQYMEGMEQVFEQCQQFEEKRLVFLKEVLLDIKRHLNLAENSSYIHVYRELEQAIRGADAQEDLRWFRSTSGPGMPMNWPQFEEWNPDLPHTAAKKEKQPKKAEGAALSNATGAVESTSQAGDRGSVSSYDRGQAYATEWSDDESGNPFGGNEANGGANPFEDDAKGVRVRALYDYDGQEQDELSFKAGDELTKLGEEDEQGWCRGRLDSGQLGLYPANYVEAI

| Protein | total SV recycling pool (FM4-64) in transfected CGNs [1] | further results |
| --- | --- | --- |
| B1 | – | total synaptic recycling pool (FM4-64) in transfected CGNs [1]: 59.5±4.3% of control for DynI-PB2-GFP |
| B2 | 64.4±6.2% of control | – |
| B3 | 28±3.5% of control | – |
| B4 | – | total synaptic recycling pool (FM4-64) in transfected CGNs [2]: 56.8±4.4% for DynI-3B-GFP |
